Data set [1] can be described thus: folding stability dG unfold from trypsin proteolysis; higher = more stable. In outline:
(§1)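 How resistant each design was to proteolysis was captured as K50, inferred by Bayesian fitting of sequencing counts. Unfolding free energy was then derived relative to a sequence-predicted unfolded-state K50 and a shared folded-state K50, per protease or combined. Digestion used trypsin and chymotrypsin at 11 threefold-diluted concentrations plus a no-protease condition, on mini-proteins under 80 residues without cysteine in a PA-tagged cDNA display construct. Designs were kept only when AlphaFold2 dimer inter-PAE was above 15.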

A short description of data set [2]: folding stability dG unfold from chymotrypsin proteolysis; higher = more stable. In outline: as §1
The nature of data set [3]: folding stability dG unfold (combined trypsin and chymotrypsin); higher = more stable. In outline:
as §1

± gives the half width of the 95% confidence interval.

For “SAGGSMGKTPDGGEVEFFEKPEENLIFAVVKHPDGSYYVAVFKKDEDKIELIDVKEVPEGEIEELASAGGSA [r2_336_TrMRF]”, the entries for the “folding stability dG unfold” value in data set [1], in data set [2] and in data set [3] were 1.26 ± 0.089 kcal/mol, 2.07 ± 0.031 kcal/mol and 1.89 ± 0.13 kcal/mol, respectively.
For “SAGGSMGSKKVGEIELEVEIGDEKVKVKVTLYETESPDDSVSLTLDVDVEHPNGKKISKELFEKLFSAGGSA [r2_363_TrMRF]” the same measures were 1.15 ± 0.064 kcal/mol, 2.14 ± 0.033 kcal/mol and 1.84 ± 0.15 kcal/mol.
Regarding “SAGGSMIFETLGSEKLIKEKAEERGLDLVEYSVEGNKFFALLKDPAGKLVLTYSDEASVKKLGLDLSKLSAG [r5_12_JUSTAS]”, the “folding stability dG unfold” value in data set [1] is -0.265 ± 0.095 kcal/mol; in data set [2], 0.523 ± 0.08 kcal/mol; in data set [3] it was 0.299 ± 0.081 kcal/mol.
For “SAGGSMIITRDPATGLVTVYKNGKKVKTIEVPPGNPVGVSLSYNPSPNTYTVTLTTPESPVKISNLSAGGSA [r2_399_JUSTAS]” the same measures were 0.855 ± 0.032 kcal/mol, 1.31 ± 0.083 kcal/mol and 1.15 ± 0.06 kcal/mol.
As to “SAGGSMIPLTVTRYDPNSDKPVSTTPVVYDPETGTWTAYPPDGSRTTYALSLEDLIAALPSTWSVGPSAGGS [r16_543_JUSTAS]”, the “folding stability dG unfold” value was determined as 0.452 ± 0.034 kcal/mol in data set [1], 0.599 ± 0.052 kcal/mol in data set [2] and 0.567 ± 0.044 kcal/mol in data set [3].
On the same counts, the results for “SAGGSMIPRLEERVLEVEVDSEEEAEKLKKELKEKIEKEHPGVEVKFELRKLPNGKYLLTITVVIPILSAGG [r13_17_JUSTAS]” are 2.89 ± 0.058 kcal/mol, 3.93 ± 0.041 kcal/mol and 3.64 ± 0.077 kcal/mol.
On the same counts, the results for “SAGGSMKIKVEYEELPNGKMVIRIDIPPEENNMTPEQVETIAKEIAEEFPNVKVETTPGSIWIRVPSAGGSA [r2_256_TrROS]” are 1.38 ± 0.1 kcal/mol, 1.21 ± 0.2 kcal/mol and 1.24 ± 0.16 kcal/mol.
In the case of “SAGGSMKITKIEIEKLPNGEYKITITKDENGNITVTVTNKNGKKKTITLKVKPEDVEEVLKELLKKSAGGSA [r2_298_TrROS_Hall]”, the “folding stability dG unfold” value was 1.6 ± 0.051 kcal/mol in data set [1], 3.01 ± 0.06 kcal/mol in data set [2] and 2.73 ± 0.1 kcal/mol in data set [3].
On to “SAGGSMKIVKIEKIDLAKLKPGDIIEVKLENGEIYRIRIEKNEDGKYTVYIYNKNGELVEEFEFDVSAGGSA [r2_323_TrROS_Hall]”, for which the “folding stability dG unfold” value worked out at 2.27 ± 0.12 kcal/mol in data set [1], 4.25 ± 0.034 kcal/mol in data set [2] and 3.84 ± 0.097 kcal/mol in data set [3].
On the same counts, the results for “SAGGSMKLTTTTPDGKPFEADVTEYPTFYKITFKVGNKEYTLLANPSTNTVDGNVDGFPFKLKLNPSAGGSA [r2_194_TrMRF]” are 1.28 ± 0.1 kcal/mol, 1.25 ± 0.18 kcal/mol and 1.25 ± 0.18 kcal/mol.
For “SAGGSMKPSKVTEVTHPDGTRFTVTEYPEVPLLTLTIERPETGTTTTVKTKSREEAEKVLAELVASSAGGSA [r2_70_JUSTAS]” the same measures were 0.696 ± 0.068 kcal/mol, 0.306 ± 0.16 kcal/mol and 0.596 ± 0.11 kcal/mol.
On the same counts, the results for “SAGGSMKPVKKTIVILKPSSVTEEEVKEEVVEKAKELGLKVKPIRTEVYPLPDYYLVVVEVEIEVPPESAGG [r13_351_TrMRF]” are 1.56 ± 0.11 kcal/mol, 1.24 ± 0.072 kcal/mol and 1.38 ± 0.21 kcal/mol.
Regarding “SAGGSMKTITDPGNLSEEEIKKILSKFPPNTTVTIEFPDATHTVTLNPDKIEISRDPSYPNFRITITISSAG [r5_373_JUSTAS]”, the “folding stability dG unfold” value in data set [1] was found to be 1.31 ± 0.029 kcal/mol; in data set [2], 2.01 ± 0.036 kcal/mol; in data set [3] it was 1.72 ± 0.1 kcal/mol.
On the same counts, the results for “SAGGSMKVEVTVTETSTLGDGTRTYTVAVLIDGTPLTFTFPFTSEEEFREAVEEWAKERGVEITLTPSSAGG [r13_750_JUSTAS]” are 3.7 ± 0.084 kcal/mol, 4.54 ± 0.049 kcal/mol and 4.25 ± 0.14 kcal/mol.
On the same counts, the results for “SAGGSMPETVKVRVRNADGSLLTLEITRDADGELTVTLEVDGKTVELSLEELEKLPPGVEVVEVEPSAGGSA [r2_431_TrROS_Hall]” are 1.9 ± 0.087 kcal/mol, 2.44 ± 0.087 kcal/mol and 2.26 ± 0.18 kcal/mol.
For “SAGGSMPKGQEVKIEIEHRRHNGRRYWRVSVEVPNGKDIEIPFDDPEEMPPEMKKQIENLAKEIVKSAGGSA [r2_17_TrROS]” the same measures were 0.146 ± 0.11 kcal/mol, 1.11 ± 0.25 kcal/mol and 0.874 ± 0.26 kcal/mol.
On to “SAGGSMQSVTSYDPNGVTYTTEFLPDEDVVTYTKTTDGTVTTTKVERLDEDGVPVPLSTSTTTLGGSAGGSA [r2_60_JUSTAS]”, for which the “folding stability dG unfold” value was 0.208 ± 0.085 kcal/mol in data set [1], -0.217 ± 0.29 kcal/mol in data set [2] and 0.107 ± 0.16 kcal/mol in data set [3].
For “SAGGSMRFKIEDINIGIIPHPPGWLLIPITVKVKFEEPDPDNGEPKTVEHEFPIMIMMPKDDLDDLSAGGSA [r2_184_TrROS]” the same measures were 2.01 ± 0.072 kcal/mol, 2.68 ± 0.045 kcal/mol and 2.44 ± 0.14 kcal/mol.
For “SAGGSMSESEVVEVTVGGKPVTITVHREDNRYSAEVTLPPGVRVVLPFGGPESPEKAVEEAVRALESAGGSA [r2_92_JUSTAS]” the same measures were 0.352 ± 0.036 kcal/mol, 0.508 ± 0.046 kcal/mol and 0.425 ± 0.065 kcal/mol.
For “SAGGSMSIPLKTEEDVKKAVEYIKQKLLEEGAPEGLKIDKVEVTKLPDGTYKITITFPNKTFELVGSAGGSA [r2_120_JUSTAS]” the same measures were 2.56 ± 0.052 kcal/mol, 2.64 ± 0.047 kcal/mol and 2.64 ± 0.079 kcal/mol.
With “SAGGSMSPALNKKLDVEEITADEEEAKKIAKESKKPVIVTLPDGTVLRFNTDGSVTEYPLPPPELLSAGGSA [r2_34_JUSTAS]”, the results for the “folding stability dG unfold” value in data set [1], in data set [2] and in data set [3] were 0.443 ± 0.07 kcal/mol, 1.12 ± 0.12 kcal/mol and 0.958 ± 0.12 kcal/mol, respectively.
For “SAGGSMSTSTLVRREIASVDPETGLRVVRVEVEEVDYGFDPKTGTVLGVSPVSPVSESVLLLPADAPPESAG [r5_903_JUSTAS]” the same measures were -0.652 ± 0.23 kcal/mol, -0.175 ± 0.22 kcal/mol and -0.286 ± 0.23 kcal/mol.
On the same counts, the results for “SAGGSMSVEVEVLAKVKLPNGEEVTFPVRVTYNPETGEVTVEIDLPKEVFERLKELYPDGIIAPEPSAGGSA [r2_409_TrMRF]” are 2.79 ± 0.11 kcal/mol, 3.5 ± 0.078 kcal/mol and 3.27 ± 0.048 kcal/mol.
In the case of “SAGGSMTFKAEVTPLDTFPLFDANGKPVAEVKVYTATIEFPDGSRVEIRGVEVGDELYILEIRPLDSAGGSA [r2_158_TrMRF]”, the “folding stability dG unfold” value in data set [1] is 1.54 ± 0.084 kcal/mol; in data set [2], 2.32 ± 0.13 kcal/mol; in data set [3] it was 2.16 ± 0.13 kcal/mol.
For “SAGGSMTISYDPSTGTVTITDPTVPLNTPRSITITFPGGETFTATLTPLPDNSATATYTVVPTAGASAGGSA [r2_89_JUSTAS]” the same measures were 1.26 ± 0.036 kcal/mol, 1.09 ± 0.1 kcal/mol and 1.23 ± 0.16 kcal/mol.
On the same counts, the results for “SAGGSMTTTTVTVTDPAGNTTTYTFPSSVPLEEIVEAVSKALGRPVTVLSVTTDPSGTTTVTLAVPGSAGGS [r8_285_JUSTAS]” are 4.33 ± 0.3 kcal/mol, 5.131 ± 0.047 kcal/mol and 5.17 ± 0.13 kcal/mol.
For “SAGGSMTVETSISRLPDGTYTVTVTFTLKNPDGSPVGTITIPVTMSPEVLAKTPLETVVAEAVAAASAGGSA [r2_421_JUSTAS]” the same measures were 2.44 ± 0.056 kcal/mol, 3.48 ± 0.048 kcal/mol and 3.09 ± 0.077 kcal/mol.
In the case of “SAGGSMVEVIVIDKDGKEHKILIPPELKPEEVAEKVKKFLEDEGYEVESIEIEELPEGFSKVIVNASAGGSA [r2_148_TrMRF]”, the “folding stability dG unfold” value in data set [1] amounted to 2.05 ± 0.078 kcal/mol; in data set [2] it was 1.45 ± 0.18 kcal/mol; in data set [3], 1.68 ± 0.21 kcal/mol.
On the same counts, the results for “SAGGSMVKLKVTSVSREGNYLTVTAELGNLIVEIRFDEGTDRFEVKVSEKPLVLGEEEIEELAKASSAGGSA [r2_482_TrMRF]” are 1.52 ± 0.064 kcal/mol, 2.38 ± 0.043 kcal/mol and 2.08 ± 0.072 kcal/mol.
For the sequence “SAGGSMVVTVSTDSTSEPTTVITITIPPELGNLTDEEKKAIAEEIAKKYPNTKFTFTPTTITITRKSAGGSA [r2_256_JUSTAS]”, the results for the “folding stability dG unfold” value in data set [1], in data set [2] and in data set [3] were 1.77 ± 0.047 kcal/mol, 2.81 ± 0.054 kcal/mol and 2.37 ± 0.23 kcal/mol, respectively.
On the same counts, the results for “SAGGSMVVVVKLKDGKKIELSVEELKKLAEELGLEPEEEDKEERLERIAKALAEKLGLEVEKVEVLSAGGSA [r2_83_TrROS_Hall]” are 4.09 ± 0.29 kcal/mol, 2.74 ± 0.22 kcal/mol and 3.33 ± 0.35 kcal/mol.
For “SAGGSNFKPLEAEIYRNPDGKDVVQIMITFPDPNGKPFTVNIWIYPDGKIKISVYYNGKKEEIEIPSAGGSA [r2_182_TrROS]” the same measures were 1.95 ± 0.13 kcal/mol, 3.57 ± 0.12 kcal/mol and 2.96 ± 0.18 kcal/mol.
Regarding “SAGGSPEEIANEVKEKILKELPPGVKVEVSVEVTPEGATVTVKVPEGKEYTVKVEGDKIVEIKLLKKSAGGS [r8_287_JUSTAS]”, the “folding stability dG unfold” value in data set [1] came out at 0.921 ± 0.081 kcal/mol; in data set [2], 1.92 ± 0.057 kcal/mol; in data set [3] it was 1.51 ± 0.28 kcal/mol.
For “SAGGSPERSAEELAEELAERIRELLREEAASFELPLHVHIVVPDPEGRRREFDVEVHVRVEVPEDARSAGGS [r16_550_TrMRF]” the same measures were 0.898 ± 0.025 kcal/mol, 1.14 ± 0.034 kcal/mol and 1.05 ± 0.054 kcal/mol.
In the case of “SAGGSPETKTISFKYPGNGMRIMVQVERDPADGKKKITINMENNPYMAERAKKALEELGLPVEIHPSAGGSA [r2_30_TrROS]”, the “folding stability dG unfold” value in data set [1] turned out to be 1.38 ± 0.13 kcal/mol; in data set [2], 1.14 ± 0.12 kcal/mol; in data set [3], 1.32 ± 0.12 kcal/mol.
On the same counts, the results for “SAGGSPIISTEKSSSGVTTITFPDGTVVTEVTTPLPDGTVLTTTTVTPPNAPVSTTTTTDPVPPGLPSAGGS [r16_211_JUSTAS]” are 0.775 ± 0.062 kcal/mol, 0.702 ± 0.027 kcal/mol and 0.767 ± 0.062 kcal/mol.

The values above are taken from the supplement of paper PMC12764529.
